The text below walks through data of paper PMC3281905, “Structure-Based Rational Design of a Toll-like Receptor 4 (TLR4) Decoy Receptor with High Binding Affinity for a Target Protein” (PLoS ONE, 2012).

The Kd is the free concentration of one partner at which half of the binding sites on the other are occupied at equilibrium, for simple one-to-one binding. A higher Kd goes with weaker binding. A word on the koff: it is a measure of how fast the partners let go of each other. The low end stands for a long-lived complex, the high end for a short-lived complex. For orientation: kon means the rate constant with which the complex forms.

The labels stand for the following.
B1: myeloid differentiation protein 2 (MD2) (natural protein, human)
chain: QKQYWVCNSSDASISYTYCDKMQYPISINVNPCIELKRSKGLLHIFYIPRRDLKQLYFNLYITVNTMNLPKRKEVICRGSDDDYSFCRALKGETVNTTISFSFKGIKFSKGKYKCVVEAISGSPEEMLFCLEFVILHQPN
notes: human MD2 (myeloid differentiation protein 2); Secreted from insect cells with the vector pAcGP67; also called human MD2; source: monomeric MD2 from Superdex 75)

Assay in all cases: SPR; Biacore 3000; decoy receptor or variant covalently immobilised on a CM5 chip (EDC/NHS, 500-800 RU); MD2 4 nM to 2 µM in HBS-EP injected at 60 µL/min for 90 sec, 30 min dissociation; 1:1 Langmuir model
Details in all cases: both partners purified
(In general: Surface plasmon resonance follows binding to a sensor surface in real time, without labels.)

Assay [1] has as its target TLR4 decoy receptor TV3 V132F (human | hagfish, UniProt O00206 27-228; O00206 27-228, V132F).
Assay [2] has as its target TLR4 decoy receptor TV3 H159Q (human | hagfish, UniProt O00206 27-228; O00206 27-228, H159Q).
In assay [3] the target is TLR4 decoy receptor TV3 V134L (human | hagfish, UniProt O00206 27-228; O00206 27-228, V134L).
Assay [4] concerns the target TLR4 decoy receptor TV3 M41E (human | hagfish, UniProt O00206 27-228; O00206 27-228, M41E).
Assay [5] concerns the target TLR4 decoy receptor TV3 F63L (human | hagfish, UniProt O00206 27-228; O00206 27-228, F63L).
Assay [6] addresses TLR4 decoy receptor TV3 N156I (human | hagfish, UniProt O00206 27-228; O00206 27-228, N156I).
Assay [7] has as its target TLR4 decoy receptor TV3 F63W (human | hagfish, UniProt O00206 27-228; O00206 27-228, F63W).
Assay [8] deals with TLR4 decoy receptor TV3 D181E (human | hagfish, UniProt O00206 27-228; O00206 27-228, D181E).
For assay [9], the target named is TLR4 decoy receptor TV3 S184K (human | hagfish, UniProt O00206 27-228; O00206 27-228, S184K).
Assay [10] addresses TLR4 decoy receptor TV3 F63W/V134L (human | hagfish, UniProt O00206 27-228; O00206 27-228, F63W | V134L).
Assay [11] addresses TLR4 decoy receptor TV3 M41E/H159Q (human | hagfish, UniProt O00206 27-228; O00206 27-228, M41E | H159Q).
Assay [12] addresses TLR4 decoy receptor TV3 V134L/H159Q (human | hagfish, UniProt O00206 27-228; O00206 27-228, V134L | H159Q).
The target of assay [13] is TLR4 decoy receptor TV3 F63W/D181E (human | hagfish, UniProt O00206 27-228; O00206 27-228, F63W | D181E).
The target of assay [14] is TLR4 decoy receptor TV3 M41E/F63W (human | hagfish, UniProt O00206 27-228; O00206 27-228, M41E | F63W).
TLR4 decoy receptor TV3 M41E/F63W, sequence (O00206 other isoform, or with tags, fused parts or gaps M41E | F63W | M41E | F63W | M41E F63W): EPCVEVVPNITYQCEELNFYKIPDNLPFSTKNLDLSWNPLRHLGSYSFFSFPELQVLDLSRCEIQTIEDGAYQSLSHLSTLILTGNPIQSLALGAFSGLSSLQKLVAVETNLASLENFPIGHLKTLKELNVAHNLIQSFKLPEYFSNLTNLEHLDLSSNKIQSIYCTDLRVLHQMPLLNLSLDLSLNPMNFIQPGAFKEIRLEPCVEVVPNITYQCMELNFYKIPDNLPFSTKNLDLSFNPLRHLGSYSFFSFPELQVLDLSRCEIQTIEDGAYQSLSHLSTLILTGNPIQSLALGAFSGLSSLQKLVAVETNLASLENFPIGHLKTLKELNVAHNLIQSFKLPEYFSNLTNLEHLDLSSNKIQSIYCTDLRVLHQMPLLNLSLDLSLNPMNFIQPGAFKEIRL
Assay [15] concerns the target B1.

TLR4 decoy receptor TV3 M41E, sequence (O00206 other isoform, or with tags, fused parts or gaps M41E | M41E | M41E): as the sequence (O00206 other isoform, or with tags, fused parts or gaps M41E | F63W | M41E | F63W | M41E F63W) above, with W37F counted along it
TLR4 decoy receptor TV3 M41E/H159Q, sequence (O00206 other isoform, or with tags, fused parts or gaps M41E | H159Q | M41E | H159Q | M41E H159Q): as the sequence (O00206 other isoform, or with tags, fused parts or gaps M41E | F63W | M41E | F63W | M41E F63W) above, with W37F, H133Q counted along it

Regarding B1, the Kd in assay [1] was 22.2 nM; in assay [2] it was 4.3 nM; in assay [3], 4.11 nM; in assay [4], 3.21 nM; in assay [5], 43.3 nM; in [6], 4.07 nM. Besides, the dissociation constant (Kd) was 2.84 nM in assay [7]; 48.2 nM in [8]; 183 nM in assay [9]; 283 nM in [10]; 145 nM in assay [11]; 0.138 nM in assay [12]. For the same molecule, the results for the dissociation constant (Kd) in assay [13] and in assay [14] were 39 nM and 0.026 nM, respectively. Besides, the dissociation rate constant (koff) in [1] came to 0.00154 s⁻¹; in [2] it was 1e-05 s⁻¹; in assay [3], 0.00011 s⁻¹; in assay [4] it was 5.29e-05 s⁻¹; in assay [5] it was 0.00115 s⁻¹; in assay [6], 8.05e-05 s⁻¹. Further, the koff is 3.97e-05 s⁻¹ in [7]; 0.000924 s⁻¹ in assay [8]; 0.00141 s⁻¹ in [9]; 0.00103 s⁻¹ in [10]; 0.000461 s⁻¹ in assay [11]; 6.12e-06 s⁻¹ in assay [12]. Further, the values for the off-rate (koff) in assay [13] and in [14] were 2.27e-05 s⁻¹ and 5.23e-07 s⁻¹, respectively. The kon in assay [1] was found to be 69100 M⁻¹ s⁻¹; in assay [2] it was 2140 M⁻¹ s⁻¹; in assay [3], 26700 M⁻¹ s⁻¹; in assay [4], 16400 M⁻¹ s⁻¹; in [5], 26500 M⁻¹ s⁻¹; in [6], 19700 M⁻¹ s⁻¹. The kon in [7] was 13900 M⁻¹ s⁻¹; in [8] it was 19100 M⁻¹ s⁻¹; in assay [9] it was 7660 M⁻¹ s⁻¹; in [10], 3660 M⁻¹ s⁻¹; in assay [11], 3160 M⁻¹ s⁻¹; in assay [12], 44100 M⁻¹ s⁻¹. In addition, the on-rate (kon) in assay [13] was 583 M⁻¹ s⁻¹; in [14] it was 20100 M⁻¹ s⁻¹.

B2: TLR4 decoy receptor, TV3 (wild-type) (designed binder)
chain: EPCVEVVPNITYQCMELNFYKIPDNLPFSTKNLDLSFNPLRHLGSYSFFSFPELQVLDLSRCEIQTIEDGAYQSLSHLSTLILTGNPIQSLALGAFSGLSSLQKLVAVETNLASLENFPIGHLKTLKELNVAHNLIQSFKLPEYFSNLTNLEHLDLSSNKIQSIYCTDLRVLHQMPLLNLSLDLSLNPMNFIQPGAFKEIRLKELALDTNQLKSVPDGIFDRLTSLQKIWLHTNPWDCSCPRIDYLSRWLNKNSQKEQGSAKCSGSGKPVRSIICP
modifications: limits from the PDB 2Z65 entity (paper residue number = entity position + 26); secreted from insect cells, immobilized by amine coupling
For the molecule B2, in assay [15], the dissociation constant Kd was 78 nM, the dissociation rate constant (koff) stood at 0.00222 s⁻¹ and the kon is 28400 M⁻¹ s⁻¹.
